According to the RNAGym collection of RNA variant scans (doi:10.1073/pnas.2313332121):
Variants at the floor of the assay were thinned out.

B1: TPR 5TU (parent)
chain: GGAUCUUCUCGAUCUAACAAAAAAGACAAAUCUGCCACAAAGCUUGAGAGCAUCUUCGGAUGCAGAGGCGGCAGCCUUCGGUGGCGCGAUAGCGCCAACGUUCUCAACUAUGACACGCAAAACGCGUGCUCCGUUGAAUGGAGUUUAUCAUG

Variants of: B1
Test: polymerase ribozyme fitness, log enrichment relative to wild type (log ratio); higher = more active; in vitro selection for triplet polymerase activity
Summary of the method: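 Mutant libraries of each subunit of a heterodimeric triplet polymerase ribozyme were built by PCR and transcribed. Each library went through one round of in vitro selection in triplicate: annealing with biotinylated primer, partner subunit and triplets, frozen incubation at −7 °C, gel excision of extended constructs, streptavidin-bead capture and RT-PCR. Input and output libraries were Illumina-sequenced; only genotypes with ≥10 input reads and ≥1 read per output were kept. Fitness is log2(genotype enrichment/wild-type enrichment), using inverse-variance-weighted replicate averages.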

Row | Variant | polymerase ribozyme fitness (log ratio)
1 | GGAUCUUCUCGAUCUAACAAAAAAGACAAAUCUGCCACAAAGCUUGAGAGCAUCUUCGAAUGCAGAGGCGGCAGCCUUCGGUGGCGCGAUAGGGCCAACGUUCUCAACUAUGACACGCAAAACGCGUGCUCCGUUGAAUGGAGUUUAUCAUG | -3.78
2 | GGAUCUUCUCGAUCUAACAUAAAAGACAAAUCUGCCACAAAGCUUGAGAGCAACAUCGGAUGCAGAGGCGGCAGCCUUCGGUGGCGCGAUAGCGCCAACGUUCUCAACUAUGACACGGAAAACGCGUGCUCCGUUGAAUGGAGUUUAUCAUG | -3.98
3 | GGAUCUUCUCGAUCUAACAAAAAAGACAAAUCUGCCACAAAGCUUGAGAGCAUCUUCGGAUGCAGAGGCGGCAGCCUUCGGUGACGCGAUAGCGCCAACGUUCUCAACUAUGACACGCAAAACGCGUGCUCCGUUGAAUGGAGGUUAUCAUG | 0.394
4 | GGAUCUUCUCGAUCUAACAAAAAAGACAAAUCUGCCACAAAGCUUGAGAGCAUCUUUGGAUGCAGAGGCGGCAGCCUUCGGUGGCGCGAUAGAGCCAACGUUCUCAACUAUGACACGCAAAACGCGUGCUCCGUUGAAUGGAGUUUAUCAUG | -1.61
5 | GGAUCUUCUCGAUCUAUCAAAAAAGACAAAUCUGCCACAAAGCUUGAGAACAUCUUCGGAUGCAGAGGCGGCAGCCUUCGGUGGCGCGAUAGCGCCAACGUUCUCAACUAUGACACGCAAAACGCGUGCUCCGUUGAAUGGAGUUUAUCAUG | -2.57
6 | GGAUCUUCUCGAUCUAACAAAAAAGACAAAUCUGCCACAAAGCUUGAGAGCAUCUUCGGAUGCAGAGGCGGCAGCCUUCGGUGGCGCGAUAGCGCCGACGUUCUCAACUAUGACACGCAAAACGCGUGCUCCGUUGAAUGGAGUUUAUCAUG | -0.12
7 | GGAUCUUCUCGAUUUAACAAAAAAGAGAAAUCUGCCACAAAGCUUGAGAGCAUCUUCGGAUGCAGAGGCGGCAGCCUUCGGUGGCGCGAUAGCCCCAACGUUCUCAACUAUGACACGCAAAACGCGUGCUCCUUUGAAUGGAGUUUAUCGUG | ≤ -4.2
8 | GGAUCUUCUCGAUGUAACAAAAAAGACAAAUCUGCCACAAAGCUUGAGAGCAUCGUUGGAUGCAGAGGCGGCAGCCUUCGGUGGCCCGAUAGCGCCAACGUUCUCAACUAUGACACGCAAAACGGGUGCUCCGUUGUAUGGAGUUUAUCAUG | ≤ -4.2
9 | GGAUCUUCUCGAUCUAACAAAAAAGACAAAUCUGCCACAAAGCUUGAGAGCAUCUUCGGAUGCAGAGGCGGCAGCCUUCGGUGGCGCGAUAGCGCGAUCGUUGUCAACUAUGCCACGCAAAACGCGUGCUCCGUUGAAUGGAAUUUAUCAUG | ≤ -4.2
10 | GGAUCUUCUCGAUCUAACAAAAAAGACAAAUCUGCCACACAGCUUGAGAGCAUCUACGGAUGCAGAGGCGGCAGCCUUCGGUGGCGCGGUAGCGCCAACGUUCUCAACUAUGACACGCAAAACGCGUGCUCCGUUGAAUGGAGUUUAUCAUG | -0.978
11 | GGAACUUCUCGAUCUAACAACAAAGACAAAUCUGCCACAAAGCUUGAGAGCAUCUUCGGAUGCAGAGGCGGCAGCCUUCAGUGGCGCGAUAGCGCCAACGUUCUCAACUAUGACACGCAAAACGCGUGCUCCGUUGAAUGGAGUUUAUCAUG | -0.338
12 | GGAUCUUCUCGAUCUAACAAAAAAGACAAAUCUGCCACAAAGCUUGAGAGCAUCUUCGGAAGCAGAGGCGGCAGCCUUCGGUGGCGCGAUAGCGCCAACGUUCUCAACUAUGACACGAAAAACGCGUGCUCCGUUGAAUGGAGUUUAUCAUG | -2
13 | GGAUCUUCUCGAUAUUACUAAAAAGACAAAUCUGCCACAAAGCUUGAGAGCGUCUUCGGAUGCAGAGACGGCAGCCUUCGGUGGGGCGAUAGCGCCAACGUUCUCAACUAUGACACGCAAAACGCGUGCUCCGUUGAAUGGAGUUUAUCAGG | ≤ -4.2
14 | GGAUCUUCUCGAUCUUACAAAAAAGAUAAAUCUGCCACAAAGCUUGAGAGCAUCUUAGGAUGCAGAGGCGGCAGCCUUCGGUGGCGCGAUAGAGCCAACGUUCUCACCUAUGACACGCAAAACGAGUGCUCCGUUGAAUGGAGUUGAUCAUG | ≤ -4.2
15 | GGAUCUUCUCGAUCAAACAAAAAAGACAAAUCUGCCACACAGCUUGAGAGCAUCUUCGGAUGCAGAGGCGGCAGCCUUCGGUGGCGCGAUAGCGCCAACGUUCUCAACUAUGACACGCAAAACGCGUGCUCCGUUGAAUGGAGUUUAUCAUG | 0.538
16 | GGAUCUUCUCGAUCUAACAAAAAAGUCAAAACUGCCACAAAGCGUGAGAGCAUCUUCGGAUGCAGAGGCGGCAGGCUUCGGUGGCGCGAUAGCGCCAACGUGCUCAACUAUGACACGCACAACGCGUGCUCCGUUGAAUGGAGUUUAUCAUG | ≤ -4.2
17 | GGAUCUUCUCGAUCUAACAAAAAAGACAAAUCUGCCACAAAGCUUGAGGGCCUCUUCGAAUGCAGAGGCGGCAGCCUUCGGUGACGCGAUAGCUCCAACGUUUUCAACUAUGACACGCAAAACGCGUGCUCCGUUGAAUGGAGUUUAUCAUG | ≤ -4.2
18 | GGAUCUUCUCGAUCUAACAAAAAAGACAAAUCUGCCACAAAGCUUGAGAGCAUCUUCGGAUGCAGAGGCGGCAGCCUUCGGUGGCUCGAUAGCGCCAACGUUCUCAACUAUGACACGCAAAACGCGUGCUCCGUUGAAUGGAGUUUAACAUG | -3.6
19 | GGAUCUUCUCGAUCUAAUAAAAAAGACAAAUCUGCCCCAAAGCUUGAGAGCAUCUUCGGAUGCAGAGGCGGCACCCUUCGCUGGCGCGAUAGCGCCAACGUUCUCAACUAUGACACGCAAAACGCGUGCUCCGUUGAAUGGAGUUUAUCAUG | ≤ -4.2
